Assay results from publication PMC6969876, “NADPH biosensor-based identification of an alcohol dehydrogenase variant with improved catalytic properties caused by a single charge reversal at the protein surface” (AMB Express, 2020).

Molecular target: the molecule itself
Test: SEC; Superdex 200 increase 10/300 GL, buffer A (50 mM triethanolamine hydrochloride, 1 mM MgCl2, pH 7.0), 0.75 mL/min; apparent native mass from a calibration curve with carbonic anhydrase, bovine serum albumin, alcohol dehydrogenase and beta-amylase; affinity-purified protein loaded

B1: NADPH-dependent alcohol dehydrogenase of Lactobacillus brevis, wild type (LbADH^WT), with N-terminal Strep-tag II (enzyme, UniProt Q84EX5 1-252, looked up)
chain: MSNRLDGKVAIITGGTLGIGLAIATKFVEEGAKVMITGRHSDVGEKAAKSVGTPDQIQFFQHDSSDEDGWTKLFDATEKAFGPVSTLVNNAGIAVNKSVEETTTAEWRKLLAVNLDGVFFGTRLGIQRMKNKGLGASIINMSSIEGFVGDPSLGAYNASKGAVRIMSKSAALDCALKDYDVRVNTVHPGYIKTPLVDDLPGAEEAMSQRTKTPMGHIGEPNDIAYICVYLASNESKFATGSEFVVDGGYTAQ
notes: NADPH-dependent (R-specific) alcohol dehydrogenase of Lactobacillus brevis; 251 amino acid residues and 26.6 kDa per subunit as printed; calculated mass of the monomer with StrepTag-II 28.2 kDa; The plasmid pASK-IBA5plus-Lbadh^WT was a gift (Prof. W. Kroutil); not shown: Strep-tag II, N-terminal, kept
Q: For B1, which “stoichiometry N” value is on record?
A: Its value is 4.
